From patent US20200316163A1 (APELLIS PHARMACEUTICALS, published 2020)

What was measured:
Experiment in all cases: cell-based or functional assay
[1] = target: T1, human complement component C3 (human, UniProt P01024 23-1663)
[2] = target: T1, human complement component C3; remark: listed apart in the source
[3] = target: T1, human complement component C3; remark: listed apart in the source
[4] = target: T1, human complement component C3; remark: listed apart in the source

B1: CA28-AEEAc-Lys-(PEG30k) (peptide)
peptide: ICVWQDWGAHRCTK
modifications: not fully specified; N-terminal acetyl; 1-methyl-Trp at position 4; disulfide Cys2-Cys12; AEEAc (8-amino-3,6-dioxaoctanoyl) spacer between Thr13 and Lys; C-terminal amide; linear monofunctional 30 kD PEG (NOF ME-300GS) on the Lys side …
Question: How did the “IC50, classical complement inhibition assay (C3b deposition ELISA, human plasma)” value [1] turn out when B1 was run?
Answer: 1260 nM

B2: CA28-2GS-BF (bifunctionalized PEG-based compstatin analog, GS type) (peptide)
peptide: ICVWQDWGAHRCTK
modifications: not fully specified; N-terminal acetyl; 1-methyl-Trp at position 4; disulfide Cys2-Cys12; AEEAc spacer between Thr13 and Lys; C-terminal amide; Lys side chain coupled to one end of a linear bifunctional 40 kD PEG (glutaryl, GS type; amide plus ester linkage)
Question: For B2, which “% Parent in Q1 (Type III cells with high C3d), modified Ham's test, 50 ug/ml” value [2] is on record?
Answer: 0.01%

Question: What about the “% Parent in Q2 (Type I and II cells with high C3d), modified Ham's test, 50 ug/ml” value [2] of the same binder?
Answer: 0.01%

Question: What about the “% Parent in Q3 (Type III cells without significant C3d), modified Ham's test, 50 ug/ml” value [2] of the same binder?
Answer: 61.5%

Question: And the “% Parent in Q4 (Type I and II cells without significant C3d), modified Ham's test, 50 ug/ml” value [2]?
Answer: 38.5%

B3: CA28-AEEAc-Lys(mPEG40K-carbonyl) (peptide)
peptide: ICVWQDWGAHRCTK
modifications: not fully specified; N-terminal acetyl; 1-methyl-Trp at position 4; disulfide Cys2-Cys12; AEEAc spacer between Thr13 and Lys; C-terminal amide; linear 40 kD mPEG (NOF ME-400TS) on the Lys side chain
Question: With B3 as the binder, how does the “IC50 (read off the curve), inhibition of classical pathway complement activation (C3b deposition ELISA)” value (“IC50 (read off the curve), inhibition” for short) [3] read?
Answer: ~600 nM

B4: CA28-AEEAc-Lys(mPEG40K-succinyl) (peptide)
peptide: ICVWQDWGAHRCTK
modifications: N-terminal acetyl; 1-methyl-Trp at position 4; disulfide Cys2-Cys12; AEEAc spacer between Thr13 and Lys; C-terminal amide; linear 40 kD mPEG (NOF ME-400CS) on the Lys side chain
Question: How did the “IC50 (read off the curve), inhibition” value [3] turn out when B4 was run?
Answer: ~700 nM

B5: CA28-AEEAc-Lys-(PEG40k) (peptide)
peptide: ICVWQDWGAHRCTK
modifications: not fully specified; N-terminal acetyl; 1-methyl-Trp at position 4; disulfide Cys2-Cys12; AEEAc spacer between Thr13 and Lys; C-terminal amide; linear monofunctional 40 kD mPEG (NOF ME-400GS) on the Lys side chain
Question: How did the “IC50 (read off the curve), inhibition” value [3] turn out when B5 was run?
Answer: ~600 nM

Question: And the “IC50, classical complement inhibition assay (C3b deposition ELISA, human plasma)” value [1]?
Answer: 1290 nM

B6: (CA28-AEEAc)8-PEG40k (peptide)
peptide: ICVWQDWGAHRCTK
modifications: N-terminal acetyl; 1-methyl-Trp at position 4; disulfide Cys2-Cys12; AEEAc spacer between Thr13 and Lys; C-terminal amide; Lys side chain coupled to an arm of an eight-arm 40 kD PEG (NOF HGEO-400GS)
Question: With B6 as the binder, how does the “IC50, classical complement inhibition assay (C3b deposition ELISA, human plasma), as a function of CA28 moiety concentration” value [1] read?
Answer: 1930 nM

Question: And the “IC50 on a molar basis (corrected for 7.5 CA28 moieties per molecule), classical complement inhibition assay” value [4]?
Answer: ~260 nM

B7: CA28-AEEAc-Lys(mPEG40K-hexanoyl) (peptide)
peptide: ICVWQDWGAHRCTK
modifications: N-terminal acetyl; 1-methyl-Trp at position 4; disulfide Cys2-Cys12; AEEAc spacer between Thr13 and Lys; C-terminal amide; linear 40 kD mPEG (NOF ME-400HS) on the Lys side chain
Question: Which “IC50 (read off the curve), inhibition” value [3] does the source give for B7 here?
Answer: ~700 nM
